Results from article PMC10246013 (bioRxiv, 2023).

Tests used:
[1] = biological target: dynein-dynactin-BicDR1 complex assembled with wtDyn (wtDDR) (human | pig | mouse) (UniProt Q14204); test: three-color TIRF comigration with processive complexes
[2] = biological target: WT dynein-GFP (human) (UniProt Q14204); test: real-time TIRF imaging of the initiation of motility
[3] = biological target: wild-type human dynein (wtDyn) (human) (UniProt Q14204); test: single-molecule colocalization
[4] = biological target: the molecule itself; test: mass photometry

dynein-dynactin-BicDR1 complex assembled with wtDyn (wtDDR) (human | pig | mouse), sequence (Q14204 whole entry, looked up, one chain of several): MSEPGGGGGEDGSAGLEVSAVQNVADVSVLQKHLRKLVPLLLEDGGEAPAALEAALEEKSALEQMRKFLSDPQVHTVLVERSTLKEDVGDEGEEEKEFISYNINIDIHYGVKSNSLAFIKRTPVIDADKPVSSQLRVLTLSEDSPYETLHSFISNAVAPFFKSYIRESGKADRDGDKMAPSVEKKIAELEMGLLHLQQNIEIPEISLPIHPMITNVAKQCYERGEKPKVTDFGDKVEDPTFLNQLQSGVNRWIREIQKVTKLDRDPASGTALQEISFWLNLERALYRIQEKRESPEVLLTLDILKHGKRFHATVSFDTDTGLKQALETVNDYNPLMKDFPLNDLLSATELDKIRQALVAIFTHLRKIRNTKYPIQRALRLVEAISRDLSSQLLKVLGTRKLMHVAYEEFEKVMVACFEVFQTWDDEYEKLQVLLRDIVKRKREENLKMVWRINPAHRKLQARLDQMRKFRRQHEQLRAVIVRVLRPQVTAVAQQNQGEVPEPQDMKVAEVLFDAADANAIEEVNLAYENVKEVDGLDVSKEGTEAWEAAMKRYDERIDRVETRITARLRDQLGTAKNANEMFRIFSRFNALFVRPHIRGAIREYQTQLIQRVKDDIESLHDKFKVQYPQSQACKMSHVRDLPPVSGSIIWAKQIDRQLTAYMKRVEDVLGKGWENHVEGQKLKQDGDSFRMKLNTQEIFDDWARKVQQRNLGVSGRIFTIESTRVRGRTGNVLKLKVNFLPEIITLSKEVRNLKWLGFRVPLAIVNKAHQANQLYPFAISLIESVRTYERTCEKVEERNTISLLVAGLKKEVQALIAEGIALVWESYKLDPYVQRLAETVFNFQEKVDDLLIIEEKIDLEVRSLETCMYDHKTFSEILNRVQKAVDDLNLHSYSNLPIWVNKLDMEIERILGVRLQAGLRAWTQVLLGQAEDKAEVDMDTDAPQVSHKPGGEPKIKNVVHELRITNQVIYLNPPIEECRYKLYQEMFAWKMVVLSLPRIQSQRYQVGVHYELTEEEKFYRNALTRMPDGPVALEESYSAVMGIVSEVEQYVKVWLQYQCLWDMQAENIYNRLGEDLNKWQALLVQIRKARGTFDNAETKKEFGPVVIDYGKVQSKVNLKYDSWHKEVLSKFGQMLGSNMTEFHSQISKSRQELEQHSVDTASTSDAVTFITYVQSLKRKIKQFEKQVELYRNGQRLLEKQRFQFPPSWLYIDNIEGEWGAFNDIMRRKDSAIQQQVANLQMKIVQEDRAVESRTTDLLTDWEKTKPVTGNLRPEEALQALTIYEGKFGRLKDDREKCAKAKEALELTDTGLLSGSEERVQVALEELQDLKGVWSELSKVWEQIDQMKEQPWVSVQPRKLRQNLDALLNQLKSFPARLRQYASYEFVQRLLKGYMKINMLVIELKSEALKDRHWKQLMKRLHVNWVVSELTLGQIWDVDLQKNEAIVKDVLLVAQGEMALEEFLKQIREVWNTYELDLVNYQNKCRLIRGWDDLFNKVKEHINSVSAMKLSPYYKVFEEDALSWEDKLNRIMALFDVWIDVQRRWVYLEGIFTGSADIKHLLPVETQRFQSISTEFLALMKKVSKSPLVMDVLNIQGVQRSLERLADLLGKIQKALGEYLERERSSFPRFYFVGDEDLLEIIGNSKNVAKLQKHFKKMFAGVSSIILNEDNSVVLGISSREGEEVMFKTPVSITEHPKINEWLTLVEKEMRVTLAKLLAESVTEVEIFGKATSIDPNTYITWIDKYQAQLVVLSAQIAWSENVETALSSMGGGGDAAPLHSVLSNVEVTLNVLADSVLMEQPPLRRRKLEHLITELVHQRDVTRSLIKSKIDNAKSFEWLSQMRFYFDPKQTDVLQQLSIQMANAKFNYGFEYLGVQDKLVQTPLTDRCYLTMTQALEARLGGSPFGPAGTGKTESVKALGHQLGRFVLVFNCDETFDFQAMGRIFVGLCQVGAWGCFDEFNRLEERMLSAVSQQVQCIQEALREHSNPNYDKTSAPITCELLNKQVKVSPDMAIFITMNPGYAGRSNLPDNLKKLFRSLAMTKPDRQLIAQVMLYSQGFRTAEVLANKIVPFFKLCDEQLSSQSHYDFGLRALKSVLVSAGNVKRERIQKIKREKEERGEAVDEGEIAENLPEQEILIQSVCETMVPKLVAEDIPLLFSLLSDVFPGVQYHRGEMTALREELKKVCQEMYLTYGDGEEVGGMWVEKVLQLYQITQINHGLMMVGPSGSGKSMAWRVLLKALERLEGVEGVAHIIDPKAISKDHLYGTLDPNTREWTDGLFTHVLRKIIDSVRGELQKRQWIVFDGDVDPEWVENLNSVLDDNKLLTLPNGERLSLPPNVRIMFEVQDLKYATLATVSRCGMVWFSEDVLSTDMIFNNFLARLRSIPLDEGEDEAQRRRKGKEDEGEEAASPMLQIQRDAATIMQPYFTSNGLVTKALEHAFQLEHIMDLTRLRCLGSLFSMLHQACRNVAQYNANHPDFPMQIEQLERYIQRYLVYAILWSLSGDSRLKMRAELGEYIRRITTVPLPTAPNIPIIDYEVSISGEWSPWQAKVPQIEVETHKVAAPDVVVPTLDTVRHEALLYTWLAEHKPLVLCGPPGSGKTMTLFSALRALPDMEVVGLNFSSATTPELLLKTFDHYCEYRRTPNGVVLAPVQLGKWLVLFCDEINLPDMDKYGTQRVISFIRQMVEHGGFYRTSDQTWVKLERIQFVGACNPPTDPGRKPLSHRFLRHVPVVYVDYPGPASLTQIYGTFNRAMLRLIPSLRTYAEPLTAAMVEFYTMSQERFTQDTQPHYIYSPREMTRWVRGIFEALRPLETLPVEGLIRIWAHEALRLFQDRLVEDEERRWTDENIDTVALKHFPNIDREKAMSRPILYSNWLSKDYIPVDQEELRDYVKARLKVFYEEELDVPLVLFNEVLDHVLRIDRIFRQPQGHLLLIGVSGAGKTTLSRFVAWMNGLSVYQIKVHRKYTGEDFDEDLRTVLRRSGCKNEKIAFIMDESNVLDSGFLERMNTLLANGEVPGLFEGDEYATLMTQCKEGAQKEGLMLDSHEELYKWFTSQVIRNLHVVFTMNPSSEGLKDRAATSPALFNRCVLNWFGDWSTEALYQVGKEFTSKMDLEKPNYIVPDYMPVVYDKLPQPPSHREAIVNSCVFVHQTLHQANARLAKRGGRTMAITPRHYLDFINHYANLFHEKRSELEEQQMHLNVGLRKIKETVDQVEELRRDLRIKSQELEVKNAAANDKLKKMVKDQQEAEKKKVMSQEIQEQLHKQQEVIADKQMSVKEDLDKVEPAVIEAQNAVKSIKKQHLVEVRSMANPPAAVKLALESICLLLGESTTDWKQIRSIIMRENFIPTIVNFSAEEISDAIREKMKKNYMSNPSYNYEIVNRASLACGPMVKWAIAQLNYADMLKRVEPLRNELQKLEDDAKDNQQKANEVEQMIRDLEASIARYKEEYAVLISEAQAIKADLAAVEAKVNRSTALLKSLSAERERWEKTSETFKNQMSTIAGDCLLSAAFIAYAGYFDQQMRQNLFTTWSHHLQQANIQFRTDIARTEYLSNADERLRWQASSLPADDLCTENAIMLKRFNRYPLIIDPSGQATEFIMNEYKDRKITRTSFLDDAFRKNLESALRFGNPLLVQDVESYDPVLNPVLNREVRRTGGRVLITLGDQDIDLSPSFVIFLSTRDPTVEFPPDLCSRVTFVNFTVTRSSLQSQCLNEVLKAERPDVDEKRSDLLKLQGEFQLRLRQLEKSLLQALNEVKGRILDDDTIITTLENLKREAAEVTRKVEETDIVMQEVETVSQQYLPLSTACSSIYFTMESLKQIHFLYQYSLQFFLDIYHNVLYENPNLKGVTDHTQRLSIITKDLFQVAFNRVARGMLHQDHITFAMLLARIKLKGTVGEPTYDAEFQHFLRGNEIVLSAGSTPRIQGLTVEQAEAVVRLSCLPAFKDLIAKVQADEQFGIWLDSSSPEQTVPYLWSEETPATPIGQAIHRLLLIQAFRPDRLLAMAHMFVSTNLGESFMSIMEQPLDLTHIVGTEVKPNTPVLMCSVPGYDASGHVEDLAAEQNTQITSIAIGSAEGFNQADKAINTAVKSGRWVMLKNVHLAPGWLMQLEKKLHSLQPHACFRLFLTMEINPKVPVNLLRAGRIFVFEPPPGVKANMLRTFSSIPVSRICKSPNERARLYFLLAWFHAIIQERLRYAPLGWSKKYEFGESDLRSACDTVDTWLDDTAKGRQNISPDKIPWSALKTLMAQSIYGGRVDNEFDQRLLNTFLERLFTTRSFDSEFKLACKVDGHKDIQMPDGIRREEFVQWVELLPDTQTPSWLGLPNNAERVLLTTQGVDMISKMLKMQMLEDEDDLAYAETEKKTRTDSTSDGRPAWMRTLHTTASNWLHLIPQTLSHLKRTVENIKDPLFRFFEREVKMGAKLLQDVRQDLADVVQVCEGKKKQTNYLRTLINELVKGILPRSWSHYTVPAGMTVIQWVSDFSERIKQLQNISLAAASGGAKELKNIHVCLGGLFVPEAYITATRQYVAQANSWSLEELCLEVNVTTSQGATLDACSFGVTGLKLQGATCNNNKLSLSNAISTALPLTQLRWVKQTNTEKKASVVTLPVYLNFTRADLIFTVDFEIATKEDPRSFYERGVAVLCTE

“human Lis1 (full-length) (from UniProt P43034 1-410) (natural protein)” showed a percent of DDR complexes co-migrating with Lis1 [1] of 70%.

“pig brain dynactin (from UniProt A0A287B8J2 1-1281) (complex)” was tested, and the percent of dynein-colocalized Nde1 immediately released, with Lis1 [2] was 50% and the percent reduction of Nde1 colocalization to dynein [3] was 37%.

B1: human Nde1 (full-length) (natural protein)
chain: MEDSGKTFSSEEEEANYWKDLAMTYKQRAENTQEELREFQEGSREYEAELETQLQQIETRNRDLLSENNRLRMELETIKEKFEVQHSEGYRQISALEDDLAQTKAIKDQLQKYIRELEQANDDLERAKRATIMSLEDFEQRLNQAIERNAFLESELDEKENLLESVQRLKDEARDLRQELAVQQKQEKPRTPMPSSVEAERTDTAVQATGSVPSTPIAHRGPSSSLNTPGSFRRGLDDSTGGTPLTPAARISALNIVGDLLRKVGALESKLASCRNLVYDQSPNRTGGPASGRSSKNRDGGERRPSSTSVPLGDKGLDTSCRWLSKSTTRSSSSC
modifications: LD655 or LD555 dye in the fluorescence assays
In the case of B1, the “stoichiometry N” value [4] is reported as 2.

B2: Nde1^1–190 (N-terminus of human Nde1) (domain or fragment)
chain: MEDSGKTFSSEEEEANYWKDLAMTYKQRAENTQEELREFQEGSREYEAELETQLQQIETRNRDLLSENNRLRMELETIKEKFEVQHSEGYRQISALEDDLAQTKAIKDQLQKYIRELEQANDDLERAKRATIMSLEDFEQRLNQAIERNAFLESELDEKENLLESVQRLKDEARDLRQELAVQQKQEKPR
modifications: LD555 dye in the size exclusion experiment
In the case of B2, the “stoichiometry N” value [4] is reported as 2.
